This note sets out measurements from publication PMC7955116, “The FlgN chaperone activates the Na^+-driven engine of the Salmonella flagellar protein export apparatus” (Communications Biology, 2021).

B1: GST-FliJ(Δ13–24) (natural protein)
chain: MAQHGALETLKDLGEMRRGCQQAEEQLKMLIDYQNEYRSNLNTDMGNGIASNRWINYQQFIQTLEKAIEQHRLQLTQWTQKVDLALKSWREKKQRLQAWQTLQDRQTAAALLAENRMDQKKMDEFAQRAAMRKPE
notes: FliJ of Salmonella enterica serovar Typhimurium with residues 13-24 deleted; also called GST-J(Δ13–24)
B2: His-FlgN (natural protein)
chain: MTRLSEILDQMTTVLNDLKTVMDAEQQQLSVGQINGSQLQRITEEKSSLLATLDYLEQQRRLEQNAQRSANDDIAERWQAITEKTQHLRDLNQHNGWLLEGQIERNQQALEVLKPHQEPTLYGADGQTSVSHRGGKKISI
notes: FlgN of Salmonella enterica serovar Typhimurium; source: E. coli BL21 (DE3) Star, in lysate or purified (Ni-NTA)

Assay [1] deals with B2. The experiment in a line: SPR; GST-FliJ or GST-FliJ(Δ13–24) captured through immobilised anti-GST antibody on a CM5 chip; His-FlgN flowed over at 20 µl/min; 10 mM HEPES pH 7.4, 0.15 M NaCl, 3 mM EDTA, 0.005% Surfactant P20; 25 °C; steady-state analysis, 1 to 1 binding model. As to conditions: both partners purified. (Surface plasmon resonance follows binding to a sensor surface in real time, without labels.)

The target of assay [2] is T1, GST-FliJ (Salmonella enterica serovar Typhimurium, UniProt P0A1K1 1-147).
T1 construct: FliJ, flagellar export protein of Salmonella enterica serovar Typhimurium; also called GST-J; source: Salmonella MMHI0117, over-produced, in lysate
The assay is described as above. The note with it: both partners purified.

Regarding B1, binding in assay [1] was characterised by a dissociation constant (Kd) of 7.74 ± 0.12 µM. As to B2, the Kd (in general, the free concentration of one partner at which half of the binding sites on the other are occupied at equilibrium, for simple one-to-one binding) in assay [2] worked out at 27.4 ± 13 µM.
